# Laboratory results reported in patent US20240301076A1 (CEPHALON, published 2024).
# T1: human CXCR1 (human, UniProt P25024 1-350)
# T1 sequence: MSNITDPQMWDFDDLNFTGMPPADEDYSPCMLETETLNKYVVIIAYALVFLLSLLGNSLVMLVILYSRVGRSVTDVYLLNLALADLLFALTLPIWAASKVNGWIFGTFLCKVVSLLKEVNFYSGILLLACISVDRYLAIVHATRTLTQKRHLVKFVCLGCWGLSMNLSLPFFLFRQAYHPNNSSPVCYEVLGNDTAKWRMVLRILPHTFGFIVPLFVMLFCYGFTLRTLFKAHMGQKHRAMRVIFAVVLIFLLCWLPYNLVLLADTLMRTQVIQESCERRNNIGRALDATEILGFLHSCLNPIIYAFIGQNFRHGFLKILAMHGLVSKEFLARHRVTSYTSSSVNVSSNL
# T2: human CXCR2 (human, UniProt P25025 1-360)
# T2 construct: also called CXC chemokine receptor 2; hCXCR2
# T2 sequence: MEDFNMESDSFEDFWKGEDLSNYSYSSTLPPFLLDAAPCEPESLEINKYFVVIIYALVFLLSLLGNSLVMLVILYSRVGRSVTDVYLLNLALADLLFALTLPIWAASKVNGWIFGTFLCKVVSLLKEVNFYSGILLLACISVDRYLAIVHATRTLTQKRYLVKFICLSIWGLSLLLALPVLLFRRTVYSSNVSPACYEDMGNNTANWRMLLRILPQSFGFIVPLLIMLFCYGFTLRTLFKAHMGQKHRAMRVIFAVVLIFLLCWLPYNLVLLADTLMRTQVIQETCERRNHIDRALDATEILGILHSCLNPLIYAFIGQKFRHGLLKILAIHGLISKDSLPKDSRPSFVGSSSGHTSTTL
# How the values were obtained:
# human CXCR1 = target: T1, human CXCR1; experiment: flow cytometry, transfected Expi293F cells
# Description: (§1) Harvested cells were resuspended in FACS buffer (1×PBS+0.5% (w/v) bovine serum albumin (BSA)+2 mM EDTA pH 7.2). Approximately 2×10⁵ cells were added per well in a 96-well round-bottomed plate. Cells were pelleted by centrifugation at 400 g for 5 mins at 4° C. and supernatants discarded. 25 μL of each test antibody or control antibody was added to the cells and incubated for 30 minutes at 4° C. Cells were washed twice in 100 μL FACS buffer followed by centrifugation at 400 g for 5 mins at 4° C.
# (§2) For detection, 50 μL of secondary antibody (Table 2) was added to relevant samples. Commercially available antibodies that bound to transfected CXCR family members were used as positive controls to ensure that the cells were expressing the receptors. Cells were washed twice in 200 μL of FACS buffer followed by centrifugation at 400 g for 5 mins at 4° C. Before sample acquisition, cells were resuspended in 100 μL of FACS buffer. Samples were acquired using the high throughput sampler on a FACSCanto™ II cytometer (Beckton-Dickinson).
# (§3) These antibody variable regions were then generated by gene synthesis and subcloned into mammalian expression vectors as described in General Methods. Antibodies were produced by co-expression of heavy and light chain plasmids in Expi293F™ cells and purified by protein A column chromatography as described in General Methods. Where several heavy and/or light chains were identified from the same hybridoma cells, each heavy chain was paired with each light chain and the resulting antibodies given suffix a, b, c, etc. Purified antibodies were desalted into Sorensen's PBS pH 5.8 and tested by flow cytometry for binding to Expi293F™ cells transfected with human CXCR2 or human CXCR1 and mock transfected Expi293F™ cells.
# human CXCR2 [1] = target: T2, human CXCR2; experiment: flow cytometry, transfected Expi293F cells
# Description: as §1, §2, §3
# human CXCR2 [2] = target: T2, human CXCR2; experiment: flow cytometry, CXCR2-transfected Expi293F cells
# Description: as §1, §2
# Each variant heavy chain was co-expressed with the parental light chain and vice versa.
# human CXCR2 [3] = target: T2, human CXCR2; experiment: cell-based or functional assay
Binder,binding result (human CXCR1),binding result (human CXCR2 [1]),Fold change in binding relative to BKO-4A8 (human CXCR2 [2]) [fold],"IC50, CXCL1, Tango assay (human CXCR2 [3]) [nM]","IC50, CXCL8, Tango assay (human CXCR2 [3]) [nM]"
"BKO-1B10 (antibody, human IgG4 S228P, lambda, V domains shown, recombinant human IgG4 S228P, lambda) VH: QLQLQESGPGLVKPSETLSLTCTVSGGSIRTSSYYWGWIRQPPGKGLEYIGSIYYSGTTYYNPSLKSRVTMSVDTSKNQFSLKLSSVTAADTAVYYCARHGRVREVPPFDYWGQGTLVTVSS VL: SSELTQDPAVSVALGQTVRITCQGDSLRYYYASWYQQKPGQAPVLVIYDENSRPSGIPDRFSGSSSGNTASLRITGTQAEDEADYYCNSRDTSGNHWAFGGGTKLTVLG",no binding,binds,–,–,–
"BKO-4A8 variant VH M96A (antibody, human IgG4 S228P, lambda, V domains shown, IgG4 S228P, lambda; parental light chain; also called 4A8 VH M96A) VH: EVQLLESGGGLVQPGGSLRLSCAASGFTFSSSTMSWVRQAPGKGLEWVSAISGRGRNTYYADSVKGRFTISRDNSRNTLYLQMNSLRAEDTAVYYCAIQAGYWGQGILVTVSS VL: QSALTQPPSASGSPGQSVTISCIGTSSDVGGYNYVSWYQQHPDKAPKLMIYEVNKRPSGVPDRFSGSKSGNTASLTVSGLQAEDEADYYCSSYAGNNNFGVFGGGTKLTVLG",–,–,1.5,0.14,0.126
"BKO-4A8 variant VH N56S (antibody, human IgG4 S228P, lambda, V domains shown, IgG4 S228P, lambda; parental light chain; also called 4A8 VH N56S) VH: EVQLLESGGGLVQPGGSLRLSCAASGFTFSSSTMSWVRQAPGKGLEWVSAISGRGRSTYYADSVKGRFTISRDNSRNTLYLQMNSLRAEDTAVYYCAIQMGYWGQGILVTVSS VL: QSALTQPPSASGSPGQSVTISCIGTSSDVGGYNYVSWYQQHPDKAPKLMIYEVNKRPSGVPDRFSGSKSGNTASLTVSGLQAEDEADYYCSSYAGNNNFGVFGGGTKLTVLG",–,–,1,0.158,0.129
"BKO-4A8 variant VH M96K (antibody, human IgG4 S228P, lambda, V domains shown, IgG4 S228P, lambda; parental light chain; also called 4A8 VH M96K) VH: EVQLLESGGGLVQPGGSLRLSCAASGFTFSSSTMSWVRQAPGKGLEWVSAISGRGRNTYYADSVKGRFTISRDNSRNTLYLQMNSLRAEDTAVYYCAIQKGYWGQGILVTVSS VL: QSALTQPPSASGSPGQSVTISCIGTSSDVGGYNYVSWYQQHPDKAPKLMIYEVNKRPSGVPDRFSGSKSGNTASLTVSGLQAEDEADYYCSSYAGNNNFGVFGGGTKLTVLG",–,–,1,0.135,0.091
"BKO-4A8 variant VL N52S (antibody, human IgG4 S228P, lambda, V domains shown, IgG4 S228P, lambda; parental heavy chain; also called 4A8 VL N52S) VH: EVQLLESGGGLVQPGGSLRLSCAASGFTFSSSTMSWVRQAPGKGLEWVSAISGRGRNTYYADSVKGRFTISRDNSRNTLYLQMNSLRAEDTAVYYCAIQMGYWGQGILVTVSS VL: QSALTQPPSASGSPGQSVTISCIGTSSDVGGYNYVSWYQQHPDKAPKLMIYEVSKRPSGVPDRFSGSKSGNTASLTVSGLQAEDEADYYCSSYAGNNNFGVFGGGTKLTVLG",–,–,1,0.214,0.126
"BKO-4A8 variant VH M96Q (antibody, human IgG4 S228P, lambda, V domains shown, IgG4 S228P, lambda; parental light chain; also called 4A8 VH M96Q) VH: EVQLLESGGGLVQPGGSLRLSCAASGFTFSSSTMSWVRQAPGKGLEWVSAISGRGRNTYYADSVKGRFTISRDNSRNTLYLQMNSLRAEDTAVYYCAIQQGYWGQGILVTVSS VL: QSALTQPPSASGSPGQSVTISCIGTSSDVGGYNYVSWYQQHPDKAPKLMIYEVNKRPSGVPDRFSGSKSGNTASLTVSGLQAEDEADYYCSSYAGNNNFGVFGGGTKLTVLG",–,–,1.5,0.33,0.14

# The next lines start with the values.
binding result (human CXCR1),binding result (human CXCR2 [1]),Fold change in binding relative to BKO-4A8 (human CXCR2 [2]) [fold],"IC50, CXCL1, Tango assay (human CXCR2 [3]) [nM]","IC50, CXCL8, Tango assay (human CXCR2 [3]) [nM]",Binder
no binding,binds,–,–,–,"BKO-1A1 (antibody, human IgG4 S228P, lambda, V domains shown, recombinant human IgG4 S228P, lambda) VH: QLQLQESGPGLVKPSETLSLTCTVSGGSIRTSSYYWGWIRQPPGKGLEYIGSIYYSGTTYYNPSLKSRVTMSVDTSKNQFSLKMSSVTAADSAVYYCARHGRVREVPPFDYWGQGTLVTVSS VL: SSELTQDPAVSVALGQTVRITCQGDSLRYYYASWYQQKPGQAPVLVIYDENSRPSGIPDRFSGSSSGNTASLSITGTQAEDEADYYCNSRDTSGNHWAFGGGTKLTVLG"
no binding,binds,–,–,–,"BKO-1D1 (antibody, human IgG4 S228P, lambda, V domains shown, recombinant human IgG4 S228P, lambda) VH: EVQLLESGGGLVQPGGSLRLSCAASKLTFKNSAMSWVRQAPGKGLEWVSAITGSGGRTYYADSVKGRFTISRDNSKNTLYLQMNSLRAEDTAIYYCAIQMGYWGQGILVTVSS VL: QSALTQPPSASGSPGQSVTISCTGTSSDVGGYNYVSWYQQHPGKAPKLMIYEVNKRPSGVPARFSGSKSGNTASLTVSGLQAEDEADYYCSSYAGSNNFGVFGGGTKLTVLG"
no binding,binds,–,–,–,"BKO-2D8 (antibody, human IgG4 S228P, lambda, V domains shown, recombinant human IgG4 S228P, lambda) VH: EVQLLESGGGLVQPGGSLRLSCAASGYTFTSSTMSWVRQAPGKGLEWVTAISGRGGRTYYADSVKGRFTISRDNSKNTLYLQMNSLRAEDTAVYYCAIQLGNWGQGILVTVSS VL: QSALTQPPSASGSPGQSVTISCTGTSSDIGGYNYVSWYQQHPGKAPKLVIYEVNMRPSGVPARFSGSKSGNTASLTVSGLQAEDEADYYCSSYAGNDNFGVFGGGTKLSVLG"
no binding,binds,–,–,–,"BKO-1H3 (antibody, human IgG4 S228P, lambda, V domains shown, recombinant human IgG4 S228P, lambda) VH: EVQLLESGGGLVQPGGSLRLSCAASGFTLSRSSTSWVRQTPGKGLEWVSAISGSGGRTYYADSVKGRFTISRDNSKNTLYLQMNSLRAEDTAVYYCAIQLGYWGQGILVTVSS VL: QSALTQPASVSGSPGQSITISCTGTSSDVGGYNYVSWYQQHPGKAPKLMIYDVSNRPSGVSNRFSGSKSGNTASLTISGLQAEDEADYYCSSYTSSSTWVFGGGTKLTVLG"
–,–,1.33,0.123,0.113,"BKO-4A8 variant VL N94K (antibody, human IgG4 S228P, lambda, V domains shown, IgG4 S228P, lambda; parental heavy chain; also called 4A8 VL N94K) VH: EVQLLESGGGLVQPGGSLRLSCAASGFTFSSSTMSWVRQAPGKGLEWVSAISGRGRNTYYADSVKGRFTISRDNSRNTLYLQMNSLRAEDTAVYYCAIQMGYWGQGILVTVSS VL: QSALTQPPSASGSPGQSVTISCIGTSSDVGGYNYVSWYQQHPDKAPKLMIYEVNKRPSGVPDRFSGSKSGNTASLTVSGLQAEDEADYYCSSYAGKNNFGVFGGGTKLTVLG"
–,–,0.5,0.164,0.105,"BKO-4A8 variant VL N94Y (antibody, human IgG4 S228P, lambda, V domains shown, IgG4 S228P, lambda; parental heavy chain; also called 4A8 VL N94Y) VH: EVQLLESGGGLVQPGGSLRLSCAASGFTFSSSTMSWVRQAPGKGLEWVSAISGRGRNTYYADSVKGRFTISRDNSRNTLYLQMNSLRAEDTAVYYCAIQMGYWGQGILVTVSS VL: QSALTQPPSASGSPGQSVTISCIGTSSDVGGYNYVSWYQQHPDKAPKLMIYEVNKRPSGVPDRFSGSKSGNTASLTVSGLQAEDEADYYCSSYAGYNNFGVFGGGTKLTVLG"
–,–,1,0.213,0.084,"BKO-4A8 variant VL N95aQ (antibody, human IgG4 S228P, lambda, V domains shown, IgG4 S228P, lambda; parental heavy chain; also called 4A8 VL N95aQ) VH: EVQLLESGGGLVQPGGSLRLSCAASGFTFSSSTMSWVRQAPGKGLEWVSAISGRGRNTYYADSVKGRFTISRDNSRNTLYLQMNSLRAEDTAVYYCAIQMGYWGQGILVTVSS VL: QSALTQPPSASGSPGQSVTISCIGTSSDVGGYNYVSWYQQHPDKAPKLMIYEVNKRPSGVPDRFSGSKSGNTASLTVSGLQAEDEADYYCSSYAGNNQFGVFGGGTKLTVLG"
–,–,1,0.149,0.169,"BKO-4A8 variant VL N94S (antibody, human IgG4 S228P, lambda, V domains shown, IgG4 S228P, lambda; parental heavy chain; also called 4A8 VL N94S) VH: EVQLLESGGGLVQPGGSLRLSCAASGFTFSSSTMSWVRQAPGKGLEWVSAISGRGRNTYYADSVKGRFTISRDNSRNTLYLQMNSLRAEDTAVYYCAIQMGYWGQGILVTVSS VL: QSALTQPPSASGSPGQSVTISCIGTSSDVGGYNYVSWYQQHPDKAPKLMIYEVNKRPSGVPDRFSGSKSGNTASLTVSGLQAEDEADYYCSSYAGSNNFGVFGGGTKLTVLG"
